Assay results from the Human Domainome abundance scans (Beltran et al. 2025).
± gives the uncertainty stated by the source.

B1: Triacylglycerol hydrolase DDHD2, residues 389 to 447; numbered along this chain, O94830 (parent)
chain: TLEEDLKKLQLSEFFDIFEKEKVDKEALALCTDRDLQEIGIPLGPRKKILNYFSTRKNS

Variants of: B1
Assay: abundance fitness (aPCA) (normalised: wild type 0, dead -1); higher = more abundant; growth selection in yeast, the domain comes from the species named
Conditions: Homo sapiens
Work on S59R yielded an abundance fitness of -0.352 ± 0.11.
With S59W the abundance fitness was -0.074 ± 0.16.
With S59M the abundance fitness was -0.068 ± 0.2.
Variant S59C has an abundance fitness of -0.058 ± 0.13.
S59Y gave an abundance fitness of -0.109 ± 0.18.
Variant S59P has an abundance fitness of -0.064 ± 0.11.
For S59Q, the abundance fitness was -0.293 ± 0.4.
Work on S59K yielded an abundance fitness of -0.547 ± 0.37.
F53S showed an abundance fitness of -0.237 ± 0.088.
In the case of F53R, the abundance fitness is reported as -0.323 ± 0.069.
In the case of F53A, the abundance fitness is reported as -0.282 ± 0.07.
F53C showed an abundance fitness of -0.029 ± 0.092.
For F53K, the abundance fitness was 0.031 ± 0.079.
With F53T the abundance fitness was -0.247 ± 0.084.
F14M showed an abundance fitness of -0.015 ± 0.085.
With F14V the abundance fitness was -0.505 ± 0.082.
F14R showed an abundance fitness of -0.671 ± 0.075.
For F14H, the abundance fitness was -0.599 ± 0.2.
F14S showed an abundance fitness of -0.511 ± 0.082.
With F14I the abundance fitness was -0.365 ± 0.24.
For F14W, the abundance fitness was -0.179 ± 0.076.
Work on T32S yielded an abundance fitness of -0.053 ± 0.072.
Variant T32P has an abundance fitness of -0.589 ± 0.11.
In the case of T32D, the abundance fitness is reported as -0.163 ± 0.097.
In the case of T32Y, the abundance fitness is reported as -0.388 ± 0.12.
Variant T32F has an abundance fitness of -1.18 ± 0.2.
Work on T32V yielded an abundance fitness of -0.631 ± 0.082.
With I49P the abundance fitness was -0.34 ± 0.11.
Work on I49H yielded an abundance fitness of -0.07 ± 0.12.
With I49M the abundance fitness was -0.09 ± 0.096.
T1Q gave an abundance fitness of -0.506 ± 0.28.
Variant T1E has an abundance fitness of -0.042 ± 0.17.
With T1L the abundance fitness was -0.488 ± 0.18.
With T1P the abundance fitness was -0.999 ± 0.42.
T1I showed an abundance fitness of -0.572 ± 0.21.
With T1K the abundance fitness was -0.425 ± 0.24.
In the case of T1Y, the abundance fitness is reported as 0.138 ± 0.38.
Variant K20I has an abundance fitness of -0.321 ± 0.14.
In the case of K20C, the abundance fitness is reported as -0.538 ± 0.14.
In the case of K20W, the abundance fitness is reported as -0.536 ± 0.11.
For K20L, the abundance fitness was -0.386 ± 0.069.
Work on L11C yielded an abundance fitness of -0.462 ± 0.088.
Variant L11M has an abundance fitness of -0.125 ± 0.058.
L11H gave an abundance fitness of -0.83 ± 0.1.
Variant D16I has an abundance fitness of -0.156 ± 0.15.
D16L showed an abundance fitness of -0.33 ± 0.06.
Variant D16Y has an abundance fitness of -0.435 ± 0.2.
Work on D16N yielded an abundance fitness of -0.025 ± 0.15.
In the case of D16G, the abundance fitness is reported as -0.088 ± 0.046.
D16S showed an abundance fitness of -0.057 ± 0.056.
In the case of D16P, the abundance fitness is reported as -0.145 ± 0.066.
In the case of K57H, the abundance fitness is reported as -0.291 ± 0.18.
K57I showed an abundance fitness of -0.075 ± 0.14.
K57Y showed an abundance fitness of -0.244 ± 0.14.
Work on K57M yielded an abundance fitness of 0.067 ± 0.092.
N51H gave an abundance fitness of -0.148 ± 0.12.
For N51V, the abundance fitness was -0.729 ± 0.092.
In the case of N51P, the abundance fitness is reported as -0.37 ± 0.11.
Work on N51L yielded an abundance fitness of -0.185 ± 0.07.
Work on N51D yielded an abundance fitness of 0.209 ± 0.089.
N51R gave an abundance fitness of 0.042 ± 0.067.
Variant N51I has an abundance fitness of -0.93 ± 0.17.
L36I gave an abundance fitness of -0.465 ± 0.11.
L36V showed an abundance fitness of -0.567 ± 0.073.
L36Y gave an abundance fitness of -0.765 ± 0.14.
With L36K the abundance fitness was -0.06 ± 0.086.
L36T gave an abundance fitness of -0.298 ± 0.093.
For L43N, the abundance fitness was 0.295 ± 0.055.
Work on L43I yielded an abundance fitness of 0.496 ± 0.057.
L43Q showed an abundance fitness of 0.621 ± 0.081.
With L43S the abundance fitness was 0.617 ± 0.048.
Variant L43V has an abundance fitness of 0.48 ± 0.053.
Variant I39A has an abundance fitness of -0.204 ± 0.074.
Work on I39D yielded an abundance fitness of -0.3 ± 0.12.
With I39L the abundance fitness was 0.176 ± 0.064.
Variant I39Y has an abundance fitness of 0.548 ± 0.1.
Work on I39R yielded an abundance fitness of -0.008 ± 0.065.
With I39G the abundance fitness was -0.261 ± 0.079.
In the case of I39K, the abundance fitness is reported as 0.196 ± 0.087.
Q37G gave an abundance fitness of 0.049 ± 0.064.
Q37E gave an abundance fitness of 0.241 ± 0.097.
Q37I gave an abundance fitness of 0.086 ± 0.1.
Variant G44R has an abundance fitness of -0.056 ± 0.055.
